Where “and” joins values, the source holds several entries; their conditions need not be identical. Identical values can stand only once.
T1: PPM1A (human, UniProt P35813 1-382)
T1 sequence (looked up): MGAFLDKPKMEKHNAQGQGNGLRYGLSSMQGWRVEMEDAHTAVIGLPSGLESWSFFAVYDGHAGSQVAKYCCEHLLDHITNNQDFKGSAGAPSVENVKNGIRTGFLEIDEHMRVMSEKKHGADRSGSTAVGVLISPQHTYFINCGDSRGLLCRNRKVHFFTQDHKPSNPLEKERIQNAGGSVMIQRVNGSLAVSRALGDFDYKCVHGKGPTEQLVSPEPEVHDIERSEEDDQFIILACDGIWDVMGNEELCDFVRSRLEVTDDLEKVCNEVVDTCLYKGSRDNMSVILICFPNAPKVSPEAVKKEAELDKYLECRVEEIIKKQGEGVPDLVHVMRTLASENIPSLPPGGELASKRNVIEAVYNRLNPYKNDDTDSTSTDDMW

B1: S2LMH2EEE Y366A-W368A (domain or fragment)
chain: not shown

Assays:
[1] = molecular target: the molecule itself; experiment: SEC
[2] = molecular target: T1, PPM1A; experiment: NMR titration
[3] = molecular target: S2LMH2EEE/S4LMH2 heterotrimer (human, UniProt Q15796 186-467; Q13485 273-552, SSMS to EEME); experiment: ITC
[4] = molecular target: B1; experiment: ITC

binding result [2]	Kd [3]	dH [3] [kJ/mol]	Kd [4]	dH [4]	Binder	binding result [1]
					B1	binds
binds	1.25 µM and 1.3 µM	-35.1	37.9 µM and 33.9 µM	-6.69 kJ/mol and -5.86 kJ/mol	MAN1 fragment from amino acids 755 to 911 (MAN1Luhm) (domain or fragment, human, UniProt Q9Y2U8 755-911, looked up) DKILVIPSKVWQGQAFHLDRRNSPPNSLTPCLKIRNMFDPVMEIGDQWHLAIQEAILEKCSDNDGIVHIAVDKNSREGCVYVKCLSPEYAGKAFKALHGSWFDGKLVTVKYLRLDRYHHRFPQALTSNTPLKPSNKHMNSMSHLRLRTGLTNSQGSS	
